Experimental findings from the supplement of paper PMC7877785 are described below.

± gives the uncertainty stated by the source.

The nature of the data set: self-splicing fitness, log relative to wild type (ln ratio); higher = more splicing; Tetrahymena group I intron in knt gene, E. coli kanamycin selection, DiMSum; sequences stand for … in CUCUCU…GGAGGGAAAAGUUAUCAGGCAUGCACCUGGUAGCUAGUCUUUAAACCAAUAGAUUGCAUCGGUUUAAAAGGCAAGACCGUCAAAUUGCGGGAAAGGGGUCAACAGCCGUUCAGUACCAAGUCUCAGGGGAAACUUUGAGAUGGCCUUGCAAAGGGUAUGGUAAUAAGCUGACGGACAUGGUCCUAACCACGCAGCCAAGUCCUAAGUCAACAGAUCUUCUGUUGAUAUGGAUGCAGUUCACAGACUAAAUGUCGGUCGGGGAAGAUGUAUUCUUCUCAUAAGAUAUAGUCGGACCUCUCCUUAAUGGGAGCUAGCGGAUGAAGUGAUGCAACACUGGAGCCGCUGGGAACUAAUUUGUAUGCGAAAGUAUAUUGAUUAGUUUUGGAGUACUCGUGGUCG
The method, boiled down: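 Six replicate transformations of E. coli BL21(DE3) with a pET-22b(+) library were grown overnight at 37°C or 30°C. The library randomised all eight P1ex-region intron nucleotides, the intron lying in the knt kanamycin-resistance gene, and plates were LB agar with or without 25 μg/mL kanamycin plus 100 μg/mL carbenicillin, 50 μM IPTG and 0.2% rhamnose. Pooled colonies were amplicon-sequenced on an Illumina HiSeq 2500, and fitness is the DiMSum error-weighted combination of wild-type-normalised replicate fold changes, kanamycin versus none.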

For UCUAAGCAAUAUUACGGACA, the “self-splicing fitness (ln)” value was -2.39 ± 0.18 (30 °C) and -1.18 ± 0.17 (37 °C).
The corresponding values for ACGCAGCAAUAUUACGCGUU are -3.56 ± 0.14 and -2.42 ± 0.18.
The corresponding values for GUGUAGCAAUAUUACGUCGU are -1.67 ± 0.15 and -1.1 ± 0.16.
In the same order, the values of CGCCAGCAAUAUUACGAAAA are -3.4 ± 0.29 and -2.7 ± 0.2.
GACUAGCAAUAUUACGAGCA: the “self-splicing fitness (ln)” value runs as follows: (30 °C) -1.51 ± 0.14; (37 °C) -0.564 ± 0.13.
In the same order, the values of GUUAAGCAAUAUUACGGCGC are 0.441 ± 0.15 and -0.509 ± 0.14.
The corresponding values for ACGUAGCAAUAUUACGAGGA are -2.78 ± 0.33 and -2.75 ± 0.38.
As for GGUUAGCAAUAUUACGUCGA, the “self-splicing fitness (ln)” value is, setting by setting: (30 °C) -1.43 ± 0.14; (37 °C) -0.492 ± 0.14.
Consider UGCCAGCAAUAUUACGAUGU, for which the “self-splicing fitness (ln)” value (30 °C) is -4.66 ± 0.26 and the “self-splicing fitness (ln)” value (37 °C) is -1.34 ± 0.15.
The corresponding values for AGCUAGCAAUAUUACGGGUA are -1.27 ± 0.073 and -0.597 ± 0.082.
The corresponding values for CCAAAGCAAUAUUACGUUUA are -3.26 ± 0.17 and -2.63 ± 0.17.
On to CAGUAGCAAUAUUACGUCGG, for which the “self-splicing fitness (ln)” value was -0.645 ± 0.078 (30 °C) and -0.0434 ± 0.1 (37 °C).
The corresponding values for UGAUAGCAAUAUUACGCAAU are -2.87 ± 0.49 and -1.62 ± 0.36.
The corresponding values for GAGAAGCAAUAUUACGCAAC are -1.48 ± 0.14 and -2.11 ± 0.26.
Regarding UACAAGCAAUAUUACGGUAU, the “self-splicing fitness (ln)” value is, setting by setting: (30 °C) -3.83 ± 0.21; (37 °C) -2.54 ± 0.16.
In the same order, the values of AUUGAGCAAUAUUACGUAAU are -1.68 ± 0.13 and -0.364 ± 0.19.
With AAGGAGCAAUAUUACGAGGA, the “self-splicing fitness (ln)” value is -3.21 ± 0.46 (30 °C) and -1.95 ± 0.38 (37 °C).
The corresponding values for GUAUAGCAAUAUUACGGCCG are -2.76 ± 0.21 and -1.09 ± 0.17.
In the same order, the values of CAAGAGCAAUAUUACGGUAG are -1.18 ± 0.076 and -1.01 ± 0.12.
Regarding UGAUAGCAAUAUUACGCAUU, the “self-splicing fitness (ln)” value was -2.52 ± 0.17 (30 °C) and -2.11 ± 0.17 (37 °C).
Take UUUGAGCAAUAUUACGUAGC: under “30 °C”, the “self-splicing fitness (ln)” value is -1.83 ± 0.32.
As to UUCCAGCAAUAUUACGAAUC, the “self-splicing fitness (ln)” value was -4.37 ± 0.31 (30 °C) and -1.09 ± 0.41 (37 °C).
Turning to GGUUAGCAAUAUUACGGCUU, the “self-splicing fitness (ln)” value runs as follows: (30 °C) -0.26 ± 0.082; (37 °C) 1.05 ± 0.096.
Take GUAAAGCAAUAUUACGCUAG: the “self-splicing fitness (ln)” value is, setting by setting: (30 °C) -1.03 ± 0.079; (37 °C) -0.533 ± 0.1.
With CCCCAGCAAUAUUACGACCC, the “self-splicing fitness (ln)” value (30 °C) was -0.862 ± 0.32.
On to GCGCAGCAAUAUUACGGACG, for which the “self-splicing fitness (ln)” value (30 °C) is -2.17 ± 0.13 and the “self-splicing fitness (ln)” value (37 °C) is -0.91 ± 0.15.
AUAGAGCAAUAUUACGCAGU: the “self-splicing fitness (ln)” value (30 °C) is -1.73 ± 0.16 and the “self-splicing fitness (ln)” value (37 °C) is -0.369 ± 0.19.
Turning to AUAAAGCAAUAUUACGAUUU, the “self-splicing fitness (ln)” value is, setting by setting: (30 °C) 0.496 ± 0.082; (37 °C) 0.827 ± 0.1.
The corresponding values for CGGUAGCAAUAUUACGCAAG are -1.94 ± 0.11 and -1.02 ± 0.12.
The corresponding values for GUCCAGCAAUAUUACGUUAA are -1.64 ± 0.1 and -0.751 ± 0.079.
With UUGGAGCAAUAUUACGACGU, for the setting “30 °C”, the “self-splicing fitness (ln)” value was -1.85 ± 0.48.
On to AAUUAGCAAUAUUACGAACC, for which the “self-splicing fitness (ln)” value was -0.0097 ± 0.32 (30 °C) and -0.827 ± 0.36 (37 °C).
Regarding CAGAAGCAAUAUUACGACAC, the “self-splicing fitness (ln)” value (37 °C) was -2.1 ± 0.29.
For AAUAAGCAAUAUUACGUAGC, the “self-splicing fitness (ln)” value (37 °C) was -2.38 ± 0.27.
Take ACACAGCAAUAUUACGAAAC: the “self-splicing fitness (ln)” value was -3.02 ± 0.23 (30 °C) and -1.82 ± 0.22 (37 °C).
CGGAAGCAAUAUUACGGCCU: the “self-splicing fitness (ln)” value turned out to be 0.133 ± 0.15 (30 °C) and 0.152 ± 0.16 (37 °C).
In the same order, the values of AACCAGCAAUAUUACGGACA are -0.462 ± 0.077 and -0.0476 ± 0.095.
On to CCAGAGCAAUAUUACGAACA, for which the “self-splicing fitness (ln)” value is -2.39 ± 0.47 (30 °C) and -1.48 ± 0.49 (37 °C).
In the same order, the values of ACUAAGCAAUAUUACGACUU are -0.429 ± 0.093 and 0.924 ± 0.12.
The corresponding values for GGGGAGCAAUAUUACGGGUU are -2.84 ± 0.22 and -2.2 ± 0.39.
UCGAAGCAAUAUUACGGUAC: the “self-splicing fitness (ln)” value (30 °C) was -4.43 ± 0.39.
Regarding UGUGAGCAAUAUUACGGUAG, the “self-splicing fitness (ln)” value reads like this: (30 °C) -2.45 ± 0.18; (37 °C) -1.79 ± 0.21.
As for UACGAGCAAUAUUACGCCCU, the “self-splicing fitness (ln)” value (30 °C) is -3.96 ± 0.47.
With GUGCAGCAAUAUUACGCGUG, the “self-splicing fitness (ln)” value reads like this: (30 °C) -1.52 ± 0.11; (37 °C) -1.66 ± 0.16.
The corresponding values for GACCAGCAAUAUUACGCAUA are -0.474 ± 0.058 and -0.452 ± 0.074.
The corresponding values for UACAAGCAAUAUUACGAUGU are -3.72 ± 0.17 and -1.96 ± 0.14.
In the same order, the values of GAUCAGCAAUAUUACGCUUG are -1.02 ± 0.095 and 0.188 ± 0.12.
As to GAUGAGCAAUAUUACGGAUA, the “self-splicing fitness (ln)” value runs as follows: (30 °C) -3.94 ± 0.42; (37 °C) -2.52 ± 0.26.
For the sequence CCGCAGCAAUAUUACGUGCG, the “self-splicing fitness (ln)” value is, setting by setting: (30 °C) -4.67 ± 0.22; (37 °C) -2.86 ± 0.15.
In the same order, the values of GUGGAGCAAUAUUACGGGUA are -2.09 ± 0.31 and -2.4 ± 0.45.
ACGGAGCAAUAUUACGUAGA: the “self-splicing fitness (ln)” value is, setting by setting: (30 °C) -4.18 ± 0.31; (37 °C) -2.41 ± 0.24.
The corresponding values for GUAAAGCAAUAUUACGGUUC are -0.687 ± 0.097 and -0.679 ± 0.13.
GAACAGCAAUAUUACGUUAG: the “self-splicing fitness (ln)” value (30 °C) is -0.954 ± 0.047 and the “self-splicing fitness (ln)” value (37 °C) is -0.969 ± 0.067.
The corresponding values for UACGAGCAAUAUUACGCUUA are -1.96 ± 0.25 and -0.594 ± 0.22.
In the same order, the values of GCCCAGCAAUAUUACGCGCA are -1.44 ± 0.11 and -0.0956 ± 0.1.
In the same order, the values of GAACAGCAAUAUUACGCGCU are -0.914 ± 0.088 and -0.133 ± 0.11.
As for UGUUAGCAAUAUUACGGGUC, the “self-splicing fitness (ln)” value reads like this: (30 °C) -2.97 ± 0.44; (37 °C) -1.53 ± 0.3.
As for GUCAAGCAAUAUUACGAGGU, the “self-splicing fitness (ln)” value was -2.65 ± 0.26 (30 °C) and -3.03 ± 0.37 (37 °C).
In the case of GUGUAGCAAUAUUACGGCGC, the “self-splicing fitness (ln)” value reads like this: (30 °C) -2.06 ± 0.44; (37 °C) -0.968 ± 0.32.
The corresponding values for UAACAGCAAUAUUACGUAGU are -3.35 ± 0.14 and -2.7 ± 0.18.
For AUACAGCAAUAUUACGCUAU, the “self-splicing fitness (ln)” value by setting is: (30 °C) -3.03 ± 0.11; (37 °C) -1.29 ± 0.087.
Turning to UCGAAGCAAUAUUACGAGGC, the “self-splicing fitness (ln)” value (37 °C) was -2.15 ± 0.49.
On to ACUCAGCAAUAUUACGCUCU, for which the “self-splicing fitness (ln)” value (30 °C) is -0.15 ± 0.067 and the “self-splicing fitness (ln)” value (37 °C) is 0.559 ± 0.094.
On to AAGAAGCAAUAUUACGGGGC, for which the “self-splicing fitness (ln)” value (37 °C) is -2.95 ± 0.26.
Take CAGAAGCAAUAUUACGUCUC: the “self-splicing fitness (ln)” value (30 °C) is -1.79 ± 0.07 and the “self-splicing fitness (ln)” value (37 °C) was -0.536 ± 0.084.
For the sequence AGUGAGCAAUAUUACGGCAA, the “self-splicing fitness (ln)” value was -2.12 ± 0.21 (30 °C) and -0.889 ± 0.2 (37 °C).
For the sequence UCCGAGCAAUAUUACGGAGA, the “self-splicing fitness (ln)” value by setting is: (30 °C) -1.83 ± 0.18; (37 °C) -1.7 ± 0.27.
The corresponding values for UUCUAGCAAUAUUACGCAUU are -1.95 ± 0.29 and -1.5 ± 0.35.
In the same order, the values of GUAUAGCAAUAUUACGCUGU are -2.81 ± 0.26 and -2.48 ± 0.3.
In the same order, the values of UCCGAGCAAUAUUACGUGUA are -2.55 ± 0.086 and -1.9 ± 0.082.
As to CCCAAGCAAUAUUACGCAAC, the “self-splicing fitness (ln)” value by setting is: (30 °C) -3.16 ± 0.26; (37 °C) -2.71 ± 0.38.
In the same order, the values of ACCUAGCAAUAUUACGUAUU are -1.84 ± 0.075 and -1.71 ± 0.11.
AAACAGCAAUAUUACGCGUA: the “self-splicing fitness (ln)” value by setting is: (30 °C) -1.64 ± 0.093; (37 °C) -0.734 ± 0.083.
The corresponding values for CCCAAGCAAUAUUACGUUCC are -3.87 ± 0.37 and -2.3 ± 0.37.
In the case of UACCAGCAAUAUUACGACCG, the “self-splicing fitness (ln)” value runs as follows: (30 °C) -0.151 ± 0.067; (37 °C) 0.099 ± 0.095.
In the same order, the values of GCCGAGCAAUAUUACGGGUG are -0.694 ± 0.067 and -0.014 ± 0.075.
In the same order, the values of ACUGAGCAAUAUUACGGAAU are -3.39 ± 0.35 and -1.87 ± 0.23.
For the sequence AAAGAGCAAUAUUACGCUCU, where the note is “37 °C”, the “self-splicing fitness (ln)” value is -2.45 ± 0.49.
